Our source for the Response R, Kd and amount of LF detected by immunoblot values is patent US20160272698A1.

For experiment [1], the target named is AVR1674 (LFG2 3F3:3H9:2C10:4B10). Briefly: biolayer interferometry (Octet), biotinylated peptide on streptavidin tips, LFG2:4B10 mAb at 500 nM.
Experiment [2] shares this target. Briefly: biolayer interferometry (Octet), biotinylated peptide on streptavidin tips, LFG2:4B10 mAb in solution, 1:1 Langmuir fit. (In general: BLI is a label-free optical method that tracks binding on a fibre tip over time.)
The target of experiment [3] is Bacillus anthracis lethal factor (recombinant LF) (Bacillus anthracis) (UniProt P15917). Description: immunoblot of denatured recombinant LF.
For experiment [4], the target named is AVR1674 (LFG2 3F3:3H9:2C10:4B10). Briefly: biolayer interferometry (Octet), follow-up experiment, 4-point titration of mAb LFG2 against the peptide.

Ends that are not written are not given here. Some results are limits rather than exact numbers.

UniProt P15917, sequence (P15917 34-809 limits assumed): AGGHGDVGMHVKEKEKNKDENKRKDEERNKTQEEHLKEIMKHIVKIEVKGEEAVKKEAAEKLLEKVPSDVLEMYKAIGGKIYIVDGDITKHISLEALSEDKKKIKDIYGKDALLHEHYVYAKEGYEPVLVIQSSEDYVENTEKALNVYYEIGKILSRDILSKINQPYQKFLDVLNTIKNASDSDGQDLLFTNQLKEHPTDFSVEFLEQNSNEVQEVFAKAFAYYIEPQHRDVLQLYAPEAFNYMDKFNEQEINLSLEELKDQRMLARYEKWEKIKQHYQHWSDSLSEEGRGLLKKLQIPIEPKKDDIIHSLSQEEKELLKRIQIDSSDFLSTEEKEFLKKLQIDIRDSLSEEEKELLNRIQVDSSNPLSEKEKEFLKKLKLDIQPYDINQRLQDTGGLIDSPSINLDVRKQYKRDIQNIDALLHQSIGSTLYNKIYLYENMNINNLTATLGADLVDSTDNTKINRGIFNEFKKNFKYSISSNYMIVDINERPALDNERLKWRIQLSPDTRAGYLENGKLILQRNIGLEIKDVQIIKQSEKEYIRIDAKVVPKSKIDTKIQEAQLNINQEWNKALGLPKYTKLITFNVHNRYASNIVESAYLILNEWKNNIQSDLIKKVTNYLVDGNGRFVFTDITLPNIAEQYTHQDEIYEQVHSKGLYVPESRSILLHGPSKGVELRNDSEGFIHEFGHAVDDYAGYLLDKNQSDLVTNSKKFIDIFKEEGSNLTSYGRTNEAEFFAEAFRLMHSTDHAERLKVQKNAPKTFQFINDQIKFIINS

One may read the Kd as the free concentration of one partner at which half of the binding sites on the other are occupied at equilibrium, for simple one-to-one binding. Read a low Kd as higher affinity. Turning to TFKDAIGGGSK-biotin […-biotin (SEQ ID NO: 30)], the Response R in experiment [1] came out at 1.01 nm. The molecule further came in with a Kd in experiment [2] of 24.5 nM.

B1: AVR1674 (LFG2 3F3:3H9:2C10:4B10) (antibody, V domains shown)
VH: EVQLQVSGAELVKPGASVRLSCKASGYTFTSYYIYWVKQRPGQGLEWIGDINPSDGDTDFNEKFKSKATLTVDKSSSTAYMQLSSLTSEDSAVYYCTRSRGGFAYWGQGTLVTVSA
VL: SHGDQASISSRSSQSIVHSNGNTYLEWYLQKPAQSPKLLIFKVSNRFSGVPDRFSRSGSGTDFTLKISRVEAEDLGIYYCSQGSHVPWTFGGGTKL
As for B1, in experiment [3], the amount of LF detected by immunoblot was below 30 ng.

As to THKDEIGGGSK-biotin […-biotin (SEQ ID NO: 36)], the Response R in experiment [1] was 2.37 nm. Besides, the Kd in experiment [2] amounted to 60 nM.

Molecule TFQDEIGGGSK-biotin […-biotin (SEQ ID NO: 37)] had a Response R in experiment [1] of 1.34 nm. The Kd in experiment [2] is 34.4 nM.

For the molecule TFKDEAGGGSK-biotin […-biotin (SEQ ID NO: 31)], the Response R in experiment [1] was 5.29 nm. The equilibrium dissociation constant (Kd) in experiment [2] came to 16.4 nM.

TFKDEIGGGSK-biotin […-biotin (SEQ ID NO: 25)] returned a Response R in experiment [1] of 4.84 nm. The results for the dissociation constant Kd in experiment [4] and in experiment [2] were 9.97 nM and 13.9 nM, respectively.
